# In publication PMC4449185:
# Experiments:
# [1] = pseudovirus neutralization, global sensitivity (≥2 of 6 non-nAbs); conditions: glycan lost
# [2] = TZM-bl pseudovirus neutralization ID50; conditions: glycan lost
# [3] = pseudovirus neutralization (S4 Table); conditions: glycan lost; control: JR-FL parent
substance,measurement,setting,value
ADA Env: N197D,other: neutralisation sensitivity,[1]; control: ADA parent,no change
JR-CSF Env: N197D,other: neutralisation sensitivity,[2]; control: JR-CSF parent,increases
same,other: neutralisation sensitivity,[1]; control: JR-CSF parent,no change
JR-FL Env (gp160∆CT): N160A,other: neutralisation sensitivity,[3],no change
JR-FL Env (gp160∆CT): N332Q,other: neutralisation sensitivity,[3],no change
PVO.4 Env: N197D,other: neutralisation sensitivity,[2]; control: PVO.4 parent,no change
same,other: neutralisation sensitivity,[1]; control: PVO.4 parent,no change
